Laboratory results published in patent US10765761B2, “Nucleic acid condensing peptide, nucleic acid condensing peptide set, nucleic acid delivery carrier, nucleic acid delivery method, cell production method, cell detection method and kit” (KABUSHIKI KAISHA TOSHIBA, priority 2016, dated 2020).

What was measured:
plasmid vector (pDNA) [1] = assay: Gel retardation assay: condensability and dissociation with M9, Example 11; format: binding
Method: Each of the peptides was dissolved in 10 mM-HEPES (pH: 5.4) and several peptide solutions having different peptide concentrations were prepared.
For M9, one peptide solution was prepared to have a peptide concentration of: (1) 0.24 mg/ml. For mHP-1 and mHP-2, peptide solutions were prepared to have a peptide concentration of 0.24 mg/ml and a mixture ratio between mHP-1 and mHP-2 of 1:3, and 1 μL of M9 was added to one to prepare a peptide solution (2), and M9 was not added to one to prepare a peptide solution (3). Moreover, the plasmid vector (pDNA) was diluted with purified water to prepare a nucleic acid solution having a pDNA concentration of 0.15 mg/ml. […]
As samples for the condensability evaluation, five sets of 5.5 μL of 10 mM-HEPES (pH: 5.4) were prepared, and 4.5 μL of the respective peptide-nucleic-acid solutions described above were added to prepare mixtures. […] After the electrophoresis, the nucleic acid dyed with ethidium bromide was visualized by UV irradiation, and the nucleic acids condensed by the peptide and the nucleic acid dissociating with the peptide and moving into the gel were detected.
FIG. 15 is a photograph showing the agarose gel subjected to UV irradiation. […] When an integrated band with a large molecular weight, which strongly shines is observed in the left lane, it was evaluated as a high condensability.

plasmid = assay: Amount of encapsulation of plasmid in liposome (Quant-iT PicoGreen dsDNA assay kit), Example 3; format: physicochemical
Method: (§1) COATSOME/SS-20 (Nippon Oil & Fats), DOPE, cholesterol and DMG-PEG were dissolved into ethanol at a molar ratio of 5:3:1:0.3, to obtain a lipid solution. Two sets of lipid solutions (0.5 ml) put into tubes were prepared, and 0.5 ml of peptide-nucleic-acid solutions (8) (mHP-1) and (16) (mHP-3) of Example 1 were dropped thereto while stirring each lipid solution, thereby forming liposomes. 9 ml of 10 mM-HEPES (pH: 5.3) was added to each of the liposome solutions to make a total amount of 10 ml (each liposome solution will be referred to as “Complex” hereinafter). Further, on an assumption that the liposome is taken into an organism, and liposome solutions (which will be referred to as “HEPES replacement”) in which ethanol, which is the solvent of Complex is substituted by HEPES were produced. The HEPES replacements were produced by condensing each solution of Complex to 1.5 ml with an ultrafiltration film for 300 kDa, adding 8.5 ml of 100 mM-HEPES (pH: 7.4) to each, performing ultrafiltration, thereafter substituting the solvent with 10 mM-HEPES (pH: 7.4), and finally condensing to 0.5 ml. Further, the HEPES replacements were filtered for sterilization with a filter with a pore diameter of 0.45 μm to prepare solutions (which will be referred to as “0.45 μm” hereinafter).
(§2) The “peptide-nucleic-acid solution”, “HEPES substituent” and “0.45 micrometer”, each of which contain the protamine, mHP-1 or mHP-3 prepared as above were examined in terms of average particle diameter of liposome, Zeta potential and amount of encapsulation of plasmid. The average particle diameter and Zeta potential were measured using a zetasizer. The amount of encapsulation of plasmid was measured using a Quant-iT PicoGreen (registered trademark) dsDNA assay kit.

plasmid vector (pDNA) [2] = assay: Average particle diameter and Zeta potential of peptide-nucleic-acid complexes (zetasizer), Example 1; format: physicochemical
Method: The condensability of the nucleic acid by the peptide of the embodiment and the potential of the peptide-nucleic-acid complex were evaluated.
The peptides were each dissolved in 10 mM of HEPES (pH: 5.3) to prepare several peptide solutions having different peptide concentrations.
For the protamine, three peptide solutions were prepared to have peptide concentrations of: (1) 2.1 mg/ml, (2) 2.4 mg/ml and (3) 2.7 mg/ml. For the mHP-4, four peptide solutions were prepared to have peptide concentrations of: (4) 1.8 mg/ml, (5) 2.1 mg/ml, (6) 2.4 mg/ml and (7) 2.7 mg/ml. For the mHP-1, three peptide solutions were prepared to have peptide concentrations of: (8) 2.1 mg/ml, (9) 2.4 mg/ml and (10) 2.7 mg/ml. For the mHP-2, five peptide solutions were prepared to have peptide concentrations of: (11) 1.2 mg/ml, (12) 1.5 mg/ml, (13) 2.1 mg/ml, (14) 2.4 mg/ml and (15) 2.7 mg/ml. For the mHP-3, three peptide solutions were prepared to have peptide concentrations of: (16) 2.1 mg/ml, (17) 2.4 mg/ml and (18) 2.7 mg/ml. Further, plasmid vector (pDNA) was diluted with purified water to prepare a nucleic acid solution having a pDNA concentration of 3.0 mg/ml.
18 sets of nucleic acid solutions (90 μL) put in tubes were prepared and the peptide solutions (1) to (18) (90 μL) described above were dropped respectively therein and mixed while stirring each, to condense the nucleic acids. Thus, the peptide-nucleic-acid complexes were obtained. Then, the mixtures were each diluted with purified water to 25-fold to produce peptide-nucleic-acid solutions. Further, as references, samples containing only each respective peptide were also prepared without adding the nucleic acid solutions thereto.
The average particle diameter and Zeta potential of each of the peptide-nucleic-acid complexes were investigated using the peptide-nucleic-acid solutions. The average particle diameter and Zeta potential were measured using a zetasizer.

[3] = Average particle diameter and Zeta potential of liposome (zetasizer), Example 3; format: physicochemical
Method: as §1, §2

[4] = Average particle diameter, polydispersity index and Zeta potential of liposome (Complex), Example 8; format: physicochemical
Method: COATSOME/SS-20 (Nippon Oil & Fats), DOPE, cholesterol and DMG-PEG were dissolved into ethanol at a molar ratio of 5:3:1:0.3, to obtain a lipid solution. Five sets of 50 μL of lipid solutions put into tubes were prepared, and 50 μL of peptide-nucleic-acid solutions (1) to (4) and (7) of Example 6 were dropped thereto while stirring each lipid solution, thereby forming liposomes. 400 μL of 10 mM-HEPES (pH: 5.4) was added to each of the liposome solutions to make a total amount of 500 μL (this liposome solution will be referred to as “Complex” hereinafter).
The average particle diameter, polydispersity index and Zeta potential of liposome were investigated using the Complex. The average particle diameter, polydispersity index and Zeta potential were measured using a zetasizer.

plasmid vector (pDNA) [5] = assay: Average particle diameter, polydispersity index and Zeta potential of peptide-nucleic-acid complexes, Example 6; format: physicochemical; details: peptide-nucleic-acid complex, total peptide 0.24 mg/ml, pDNA 0.15 mg/ml
Method: Each of the peptides was dissolved into 10 mM-HEPES (pH: 5.4) to prepare several peptide solutions having different peptide concentrations.
For the mHP-1, one peptide solution was prepared to have a peptide concentration of (1) 0.24 mg/ml. For the mHP-2, one peptide solution was prepared to have a peptide concentration of (2) 0.24 mg/ml. For the mHP-1 and mHP-2, five peptide solutions were prepared to have a total peptide concentration of 0.24 mg/ml and mixture ratios between mHP-1 and mHP-2 of: (3) 1:1, (4) 1:3, (5) 1:5, (6) 1:7 and (7) 1:9. Meanwhile, plasmid vector (pDNA) was diluted with purified water to prepare a nucleic acid solution having a pDNA concentration of 0.15 mg/ml.
The peptide solutions (1) to (7) (100 μL) were prepared in tubes and the nucleic acid solution (200 μL) was dropped and mixed thereto while stirring each solution to condense the nucleic acids, and thus peptide-nucleic-acid complexes were obtained.
The peptide-nucleic-acid complexes were investigated in terms of average particle diameter, polydispersity index and Zeta potential using the respective peptide-nucleic-acid solutions. The average particle diameter, polydispersity index and Zeta potential were measured using a zetasizer.

[6] = pDNA/peptide 1/0.7 (peptide conc. 2.1 mg/mL)
[7] = pDNA/peptide 1/0.8 (peptide conc. 2.4 mg/mL)
[8] = pDNA/peptide 1/0.9 (peptide conc. 2.7 mg/mL)
[9] = peptide solely, no nucleic acid (Reference)
[10] = pDNA/peptide 1/0.6 (peptide conc. 1.8 mg/mL)
[11] = pDNA/peptide 1/0.4 (peptide conc. 1.2 mg/mL)
[12] = pDNA/peptide 1/0.5 (peptide conc. 1.5 mg/mL)

Sequence | Average particle diameter (zAve) (plasmid vector (pDNA) [2]; [6]) [nm] | Zeta potential (plasmid vector (pDNA) [2]; [6]) [mV] | Average particle diameter (zAve) (plasmid vector (pDNA) [2]; [7]) [nm] | Zeta potential (plasmid vector (pDNA) [2]; [7]) [mV] | Average particle diameter (zAve) (plasmid vector (pDNA) [2]; [8]) [nm] | Zeta potential (plasmid vector (pDNA) [2]; [8]) [mV] | Average particle diameter (zAve) (plasmid vector (pDNA) [2]; [9]) [nm] | Zeta potential (plasmid vector (pDNA) [2]; [9]) [mV] | further results
GNQSSNFGPMKGGNFGGRSSGPYGGGGQYFAKPRNQGGYGGGKCRGKVPGKYGKG [M9, third nucleic acid condensing peptide comprising M9 domain of hnRNP A1] | – | – | – | – | – | – | – | – | influence on condensability or dissociation of nucleic acid by mixed mHP-1 and mHP-2 peptide solution (plasmid vector (pDNA) [1]; M9 added to mHP-1:mHP-2 1:3 peptide solution (FIG. 15)): does not influence the condensability or dissociation; nucleic acid condensability (plasmid vector (pDNA) [1]; M9 used solely, 0.24 mg/ml, 0.8% agarose gel (FIG. 15)): does not exhibit nucleic acid condensability
PRRRRSSSRPIRRRRPRRASRRRRRRGGRRRR (salmon) [Protamine sequence, reference compound] | 136.5 | −27.8 | 135.9 | −24.9 | 139.6 | −29.5 | 711.3 | 28.1 | Plasmid inclusion amount (plasmid; 0.45 μm filtered): 7.97 µg/mL; Plasmid inclusion amount (plasmid; HEPES substitution): 12.68 µg/mL; Average particle diameter (zAve) ([3]; Peptide-nucleic acid solution): 167.8 nm; Zeta potential ([3]; Peptide-nucleic acid solution): −41.30 mV; Average particle diameter (zAve) ([3]; liposome, 0.45 μm filtered): 235.5 nm; Zeta potential ([3]; liposome, 0.45 μm filtered): −0.72 mV; Average particle diameter (zAve) ([3]; liposome, HEPES substitution): 392.2 nm; Zeta potential ([3]; liposome, HEPES substitution): −0.47 mV
RRRRRRGGRRRRRR (Comperative example of nucleic acid condensing peptide) [mHP-4] | 141.2 | −30.7 | 323.4 | 28.6 | 212.2 | 33.0 | 1083.0 | 39.7 | Average particle diameter (zAve) (plasmid vector (pDNA) [2]; [10]): 130.9 nm; Zeta potential (plasmid vector (pDNA) [2]; [10]): −23.8 mV
RRRRRRYYRQRQRGGRRRRRR (Comperative example of nucleic acid condensing peptide) [mHP-2] | 184.0 | 27.3 | 159.0 | 21.6 | 158.6 | 34.2 | 321.0 | 50.5 | Average particle diameter (zAve) (plasmid vector (pDNA) [2]; [11]): 141.8 nm; Zeta potential (plasmid vector (pDNA) [2]; [11]): −27.7 mV; Average particle diameter (zAve) (plasmid vector (pDNA) [2]; [12]): 139.8 nm; Zeta potential (plasmid vector (pDNA) [2]; [12]): −17.7 mV; Average particle diameter (zAve) [4]: 250.0 nm; Polydispersity index (PDI) [4]: 0.092; Zeta potential [4]: 36.2 mV; Average particle diameter (zAve) (plasmid vector (pDNA) [5]): 169.1 nm; Polydispersity index (PDI) (plasmid vector (pDNA) [5]): 0.285; Zeta potential (plasmid vector (pDNA) [5]): −34.1 mV
